What all share (assay): ITC; 25 °C, MicroCal PEAQ-ITC; protein in the cell titrated with 19 injections of peptide
Conditions in all cases: both partners purified
In general terms: ITC needs no label: the signal is the heat of the interaction.

The target in experiment [1] is T1, PHD domain of UHRF1 (UHRF1PHD) (structural Zn2+ ions bound; limits are not given, so they follow the usual UHRF1 PHD structural constructs (about 298-366), which include the N-terminal pre-PHD zinc site; the UniProt PHD-type featu).
T1 chain: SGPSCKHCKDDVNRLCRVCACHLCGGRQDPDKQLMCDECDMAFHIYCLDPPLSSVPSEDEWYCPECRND

The next experiment deals with T2, RBBP7 (1‐ 425) (UniProt Q16576 1-425).
T2 construct: RBBP7 residues 1-425; source: Sf9 (baculovirus), purified (Ni-NTA, Resource Q, Superdex 75)
T2 sequence (Q16576 whole entry, the tested form may be a part): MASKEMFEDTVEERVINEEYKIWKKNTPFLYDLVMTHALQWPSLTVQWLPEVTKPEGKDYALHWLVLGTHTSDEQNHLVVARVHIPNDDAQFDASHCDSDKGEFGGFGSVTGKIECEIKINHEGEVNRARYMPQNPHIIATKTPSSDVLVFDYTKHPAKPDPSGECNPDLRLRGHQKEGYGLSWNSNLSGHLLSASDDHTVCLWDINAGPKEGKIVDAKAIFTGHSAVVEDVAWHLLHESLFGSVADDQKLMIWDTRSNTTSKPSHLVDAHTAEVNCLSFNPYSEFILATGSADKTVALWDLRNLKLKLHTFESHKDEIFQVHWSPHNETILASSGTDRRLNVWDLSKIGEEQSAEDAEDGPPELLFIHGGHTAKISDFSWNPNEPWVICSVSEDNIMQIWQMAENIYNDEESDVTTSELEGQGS

The target of a further experiment is T3, RBBP4 (1‐ 425) (UniProt Q09028 1-425).
T3 construct: RBBP4 residues 1-425; source: Sf9 (baculovirus), purified (Ni-NTA, Resource Q, Superdex 75)
T3 sequence (Q09028 whole entry, the tested form may be a part): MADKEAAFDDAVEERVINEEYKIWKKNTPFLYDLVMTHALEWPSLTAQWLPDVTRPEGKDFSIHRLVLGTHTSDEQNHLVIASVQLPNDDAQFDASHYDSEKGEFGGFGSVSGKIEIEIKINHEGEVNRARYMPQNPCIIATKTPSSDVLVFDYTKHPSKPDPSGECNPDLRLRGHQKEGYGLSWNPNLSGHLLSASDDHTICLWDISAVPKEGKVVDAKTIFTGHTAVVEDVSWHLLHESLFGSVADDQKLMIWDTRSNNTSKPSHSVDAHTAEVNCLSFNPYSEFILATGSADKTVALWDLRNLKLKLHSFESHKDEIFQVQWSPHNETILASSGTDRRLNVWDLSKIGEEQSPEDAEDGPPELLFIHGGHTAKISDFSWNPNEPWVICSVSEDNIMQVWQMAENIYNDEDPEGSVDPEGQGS

Non-standard residues stand in square brackets, D forms with d. No end group written: not given here. Arg(Me2a) = CN(C)C(=N)NCCC[C@H](N)C(=O)O

B1: native H3R2 peptide (H3_(1‐15) without diazirine and biotin) (peptide)
peptide: ARTKQTARKSTGGKA-NH2
notes: Rink amide resin was used for all peptides, so the C-terminus is probably an amide; also called native H3_(1‐15) peptide; source: synthetic peptide (Fmoc solid-phase synthesis)
The term Kd denotes the constant that tells how readily two partners part at equilibrium. Lower therefore signals higher affinity. In experiment [1], B1 registered a Kd of 2300 nM.

B2: native H3R2me2a peptide (H3_(1‐15) without diazirine and biotin) (peptide)
peptide: A[Arg(Me2a)]TKQTARKSTGGKA-NH2
notes: Rink amide resin was used for all peptides, so the C-terminus is probably an amide; source: synthetic peptide (Fmoc solid-phase synthesis)
Regarding B2, the Kd with RBBP7 (1‐ 425) was 15400 nM; in the experiment with RBBP4 (1‐ 425), ~1200 nM.

These data come from publication PMC11005723, “Development of Complementary Photo‐arginine/lysine to Promote Discovery of Arg/Lys hPTMs Interactomes” (Advanced Science, 2024).
